Test results reported in patent CN112225809A.

Target: hPD1/Fc of human IgG1 (fluorescently labelled) (human) (UniProt Q15116)
Assay: flow cytometry blocking assay: 100 ng hPD-1/hFc-FITC and antibody on SPC-A1-PDL1 cells

Sequence of UniProt Q15116 (Q15116 25-167 limits assumed): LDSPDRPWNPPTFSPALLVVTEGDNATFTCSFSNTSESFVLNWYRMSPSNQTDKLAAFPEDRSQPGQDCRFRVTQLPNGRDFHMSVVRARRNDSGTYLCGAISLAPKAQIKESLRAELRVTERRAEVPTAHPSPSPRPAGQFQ

B1: hUM1-30 (antibody, human IgG4 S228P, kappa, V domains shown)
VH: EVQLVESGGGLVQPGGSLRLSCAASGFTFSTYGMSWVRQAPGKGLEWVSTISGGGRYTYYPDSVKGRFTISRDNSKNTLYLQMNSLRAEDTAVYYCARQKGTTWFAHWGQGTLVTVSS
VL: DIQMTQSPSSLSASVGDRVTITCRASESVDDNGISFMNWFQQKPGKAPKLLIYAASNQGSGVPSRFSGSGSGTDFTLTISSLQPEDFATYYCQQSKEVPWTFGQGTKVEIKR
amount of antibody that blocks the binding of PD-1 to PD-L1: 1.6 µg
